Data from patent US20260139048A1 (NANJING LEGEND BIOTECH, published 2026).
Numbering of substitutions follows the chain as printed.

B1: TIGIT-18 chimeric antibody (antibody, human IgG1, kappa, V domains shown)
VH: QVQLQQPGAELVRPGASVKLSCKASGYSFTSYWMNWVKQRPGQGHEWIGMIHLSNSETRLNQNFLDKATLTVDKSSSTVYLQLSSPTSEDSAVYYCARERDYYGSSYFDYWGQGTTLTVSS
VL: DIVMTQSPASLVVSLGQRATISCRTSQSVSTSSYSYMHWYQQKPGQPPKLLIKNASNLESGVPARFSASGSGTDFTLNIHPVEEEDAATYYCQHSWEIPRTFGGGTKLEIKR
notes: Full-length chimeric IgG1 kappa
B2: TIGIT-52 chimeric antibody (antibody, human IgG1, kappa, V domains shown)
VH: EVQLVESGGGLVEPGGSLTLSCVASGFTFSSFAMSWVRQTPEKRLEWVATISNGGSYTYYPDTVKGRFTISRDNAKNTLFLQMSSLRSEDTAMYYCARPYYGTTYGYYFDFWGQGTTLTVSS
VL: QIVLTQSPASLAVSLGQRATISCRASESVDRNGNSFMHWYQQKPGQPPKLLIYLASNLESGVPARFSGSGSRTDFTLTIDPVEADDAATYYCQQNNEDPLTFGAGTKLELKR
notes: as for B1
B3: TIGIT-63 chimeric antibody (antibody, human IgG1, kappa, V domains shown)
VH: DVQLVESGGGLVQPGGSLSLSCAASGFTFTDYYMNWVRQPPGKALEWLGFIRNKANGYTTEYSASVKGRFTISRDNSQSILYLQMNALRAEDSATYYCARSTAWYFDVWGTGTTLTVSS
VL: DIQMTQSPASLSASVGGTVTITCRASEHIYSYLAWYQQKQGKSPQLLVYNAKTLAEGVPSRFSGSGSGTQFSLKINSLQPKDFGSYYCQHHYGNPLTFGAGTKLELKR
notes: as for B1
B4: TIGIT-100 chimeric antibody (antibody, human IgG1, kappa, V domains shown)
VH: QVQLQQPGPELVKPGASVKISCKASGYSFTDYNMNWVKQSNGKSLEWIGVINPNSGTDNYNQKFKGKATLTVDQSSSTAYMQLNSLTSEDSAVYFCARGVYFGNYFDSWGQGTTLTVSS
VL: DIVMTQSPASLSASVGETVTITCRASENIYSSLAWYQQKQGKSPQLLVFNAKTLTEGVPSRFSGSGSGTQFSLKINSLQPEDFGSYYCQHHYGAPWTFGGGTKLEIKR
notes: as for B1
B5: Hu1217-2-2 (anti-TIGIT positive control antibody) (antibody, V domains shown)
VH: EVQLVESGGGLVQPGGSLRLSCAASGFTFSDYYMYWVRQAPGKGLEWVAYITKGGGSTYYPDSVKGRFTISRDNAKNTLYLQMNSLRAEDTAVYYCARQTNYDFTMDYWGQGTLVTVSS
VL: EIVMTQSPATLSVSPGERATLSCKASQDVGTSVAWYQQKPGQAPRLLIYWASARHTGIPARFSGSGSGTEFTLTISSLQSEDFAVYYCQQYSSYPLTFGGGTKVEIK
B6: huTIGIT-6-1 (antibody, human IgG1, kappa, V domains shown)
VH: QVQLVQSGAEVKKPGASVKVSCKASGYTITENTMHWVRQAPGQRLEWIGGINPNQGGTSYSQKFQGRATLTVDTSASTAYMELSSLRSEDTAVYYCTRSSYYRYDLDYWGQGTTVTVSS
VL: DIQMTQSPSSLSASVGDRVTITCQASQDIKTALAWYQQKPGKAPKLLIYSASYRYTGVPSRFSGSGSGTDFTFTISSLQPEDIATYYCHQHYTTPWTFGGGTKLEIKR
notes: Humanized IgG; also called 6VH6.M4 + 6VL1.M1
B7: huTIGIT-6-2 (antibody, human IgG1, kappa, V domains shown)
VH: B6 VH with Q55N, G56A
VL: B6 VL
notes: Humanized IgG; also called 6VH6.M5 + 6VL1.M1
B8: huTIGIT-6-3 (antibody, human IgG1, kappa, V domains shown)
VH: B6 VH with I29F, T33A
VL: B6 VL
notes: Humanized IgG; also called 6VH6.M6 + 6VL1.M1
B9: reshaped TIGIT-3 antibody 3VH3 + 3VL1.M3 (antibody, V domains shown)
VH: EVQLVESGGGLVQPGGSLRLSCAASGFTFSSYGMSWVRQAPGKGLELVATIKSDGGSTNLPDSVKGRFTISRDNSKNTLYLQMNSLRAEDTAVYYCVRGYFDYWGQGTTVTVSS
VL: DIQMTQSPSSLSASVGDRVTITCKASQDVKTAVAWYQQKPGKVPKLLIYWASTRHSGVPSRFSGSGSGTDFTLTISSLQPEDVATYYCQQYYSTPYTFGGGTKVEIK
notes: Full-length IgG, tested as HEK293 supernatant
B10: reshaped TIGIT-3 antibody 3VH3 + 3VL1.M1 (antibody, V domains shown)
VH: B9 VH
VL: B9 VL with K24R, V29I, V33L, A51S, S56T
notes: as for B9
B11: reshaped TIGIT-3 antibody 3VH3 + 3VL1.M4 (antibody, V domains shown)
VH: B9 VH
VL: B9 VL with H55Q
notes: as for B9

These binders were tested against T1, TIGIT on TIGIT-over expressing NFAT-Luc/Jurkat effector cells (GenScript reporter cell line) (UniProt Q495A1 22-244, limits assumed) (assay: cell-based or functional assay).
T1 sequence (looked up): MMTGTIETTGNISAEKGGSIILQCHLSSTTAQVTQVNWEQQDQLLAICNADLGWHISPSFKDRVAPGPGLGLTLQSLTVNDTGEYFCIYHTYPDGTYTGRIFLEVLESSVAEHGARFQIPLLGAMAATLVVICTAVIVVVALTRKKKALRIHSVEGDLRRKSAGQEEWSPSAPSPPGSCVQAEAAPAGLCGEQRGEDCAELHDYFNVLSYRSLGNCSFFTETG

| Bottom (RLU) | EC50 | Top (RLU) | Binder |
| --- | --- | --- | --- |
| 10400 RLU | 31.3 nM | 50600 RLU | B1 |
| 11800 RLU | > 100 nM | 14200 RLU | B2 |
| 11200 RLU | 46.8 nM | 28700 RLU | B3 |
| 4520 RLU | > 100 nM | 11700 RLU | B4 |
| 10500 RLU | 15.6 nM | 51700 RLU | B5 |

Biological target: T1, TIGIT on TIGIT-over expressing …
Assay: cell-based or functional assay
Remark: another data set of the same source

| Bottom (RLU) | EC50 | Top (RLU) | Binder |
| --- | --- | --- | --- |
| 52900 RLU | 11.1 nM | 163000 RLU | B5 |
| 51200 RLU | 9.1 nM | 131000 RLU | B6 |
| 49800 RLU | 9.03 nM | 129000 RLU | B7 |
| 49400 RLU | 11.1 nM | 135000 RLU | B8 |

What follows are binders tested against T2, human TIGIT expressed on CHO-K1 cells (human, UniProt Q495A1 22-244) (assay: flow cytometry on CHO-K1 cells expressing human TIGIT).
T2 construct: whole, on cells; also called human TIGIT-CHO-K1 cells; human TIGIT over-expressing cell line
T2 sequence (looked up): T1 sequence (looked up)

| EC50 | Binder |
| --- | --- |
| 0.76 nM | B1 |
| 8.43 nM | B2 |
| 1.12 nM | B3 |
| 0.55 nM | B4 |
| 0.46 nM | B5 |

Biological target: T2, human TIGIT expressed on CHO-K1 cells
Assay: as above
Remark: another data set of the same source

| EC50 | Binder |
| --- | --- |
| 0.65 nM | B5 |
| 1.16 nM | B6 |
| 0.745 nM | B7 |
| 1.11 nM | B8 |

The binders below were run against T3, His-tagged human TIGIT (human, UniProt Q495A1 22-141) (assay: SPR experiment 3, IgG from HEK293 supernatant captured).
T3 construct: SPR analyte; also called human TIGIT protein; not shown: His tag
T3 sequence: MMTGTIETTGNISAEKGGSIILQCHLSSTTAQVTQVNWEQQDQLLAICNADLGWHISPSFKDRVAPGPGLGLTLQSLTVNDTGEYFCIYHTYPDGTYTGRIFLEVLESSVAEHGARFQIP

| Kd | koff | kon | Binder |
| --- | --- | --- | --- |
| 46 nM | 0.0089 s⁻¹ | 190000 M⁻¹ s⁻¹ | B9 |
| 17 nM | 0.0038 s⁻¹ | 230000 M⁻¹ s⁻¹ | B10 |
| 55 nM | 0.012 s⁻¹ | 230000 M⁻¹ s⁻¹ | B11 |

What follows are binders tested against T3, His-tagged human TIGIT (assay: SPR experiment 2, IgG from HEK293 supernatant captured).

| Kd | koff | kon | Binder |
| --- | --- | --- | --- |
| 0.34 nM | 9.8e-05 s⁻¹ | 280000 M⁻¹ s⁻¹ | B6 |
| 0.71 nM | 0.00022 s⁻¹ | 300000 M⁻¹ s⁻¹ | B7 |
| 0.64 nM | 0.00017 s⁻¹ | 270000 M⁻¹ s⁻¹ | B8 |

These binders were tested against T4, cynomolgus TIGIT expressed on CHO-K1 cells (cynomolgus, UniProt A0A7N9I9V4 89-312) (assay: flow cytometry on CHO-K1 cells expressing cynomolgus TIGIT).
T4 construct: whole, on cells; also called cynomolgus TIGIT over-expressing cell line
T4 sequence (A0A7N9I9V4 entry or part of it): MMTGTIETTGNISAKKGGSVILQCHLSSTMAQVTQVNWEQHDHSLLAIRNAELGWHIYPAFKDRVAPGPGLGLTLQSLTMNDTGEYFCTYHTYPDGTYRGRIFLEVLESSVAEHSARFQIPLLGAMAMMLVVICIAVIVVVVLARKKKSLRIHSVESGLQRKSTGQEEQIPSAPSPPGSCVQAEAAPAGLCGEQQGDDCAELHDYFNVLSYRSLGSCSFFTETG

| EC50 | Binder |
| --- | --- |
| 1.45 nM | B1 |
| 7.68 nM | B2 |
| 1.92 nM | B3 |

Biological target: T4, cynomolgus TIGIT expressed on CHO-K1 …
Assay: as above
Remark: another data set of the same source

| EC50 | Binder |
| --- | --- |
| 43 nM | B5 |
| 4.69 nM | B6 |
| 4.98 nM | B7 |
| 8.2 nM | B8 |

The binders below were run against T3, His-tagged human TIGIT (assay: SPR (Biacore T200), antibody captured, His-tagged TIGIT analyte).

| Kd | koff | kon | Binder |
| --- | --- | --- | --- |
| 0.22 nM | 9.5e-05 s⁻¹ | 430000 M⁻¹ s⁻¹ | B1 |
| 0.17 nM | 7.4e-05 s⁻¹ | 440000 M⁻¹ s⁻¹ | B2 |
| 2.5 nM | 0.00062 s⁻¹ | 250000 M⁻¹ s⁻¹ | B3 |
| 6.6 nM | 0.014 s⁻¹ | 2.2e+06 M⁻¹ s⁻¹ | B4 |
| 0.11 nM | 0.00013 s⁻¹ | 1.2e+06 M⁻¹ s⁻¹ | B5 |

These binders were tested against T5, His-tagged cynomolgus TIGIT (cynomolgus, UniProt A0A7N9I9V4 89-209) in the same assay as above.
T5 construct: SPR analyte; also called cynomolgus TIGIT protein; not shown: His tag
T5 sequence (A0A7N9I9V4 entry or part of it): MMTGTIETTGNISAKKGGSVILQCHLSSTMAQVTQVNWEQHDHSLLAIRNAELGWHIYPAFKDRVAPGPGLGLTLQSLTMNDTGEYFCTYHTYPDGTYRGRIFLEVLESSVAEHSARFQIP

| Kd | koff | kon | Binder |
| --- | --- | --- | --- |
| 4.4 nM | 0.0011 s⁻¹ | 260000 M⁻¹ s⁻¹ | B1 |
| 0.28 nM | 6.1e-05 s⁻¹ | 220000 M⁻¹ s⁻¹ | B2 |
| 3.4 nM | 0.00049 s⁻¹ | 140000 M⁻¹ s⁻¹ | B3 |
| 29 nM | 0.012 s⁻¹ | 420000 M⁻¹ s⁻¹ | B4 |
| 280 nM | 0.044 s⁻¹ | 160000 M⁻¹ s⁻¹ | B5 |

Biological target: T3, His-tagged human TIGIT
Assay: as above
Remark: another data set of the same source

| Kd | koff | kon | Binder |
| --- | --- | --- | --- |
| 0.051 nM | 5.1e-05 s⁻¹ | 1e+06 M⁻¹ s⁻¹ | B5 |
| 0.21 nM | 5.6e-05 s⁻¹ | 260000 M⁻¹ s⁻¹ | B6 |
| 0.27 nM | 9.6e-05 s⁻¹ | 350000 M⁻¹ s⁻¹ | B7 |
| 0.29 nM | 9.8e-05 s⁻¹ | 340000 M⁻¹ s⁻¹ | B8 |

Biological target: T5, His-tagged cynomolgus TIGIT
Assay: as above
Remark: another data set of the same source

| Kd | koff | kon | Binder |
| --- | --- | --- | --- |
| 470 nM | 0.063 s⁻¹ | 130000 M⁻¹ s⁻¹ | B5 |
| 75 nM | 0.0044 s⁻¹ | 59000 M⁻¹ s⁻¹ | B6 |
| 110 nM | 0.0074 s⁻¹ | 69000 M⁻¹ s⁻¹ | B7 |
| 130 nM | 0.0078 s⁻¹ | 61000 M⁻¹ s⁻¹ | B8 |

What follows are binders tested against T2, human TIGIT expressed on CHO-K1 cells (assay: flow cytometry competition: biotinylated CD155-Fc on human TIGIT-CHO-K1 cells).

| IC50 | Binder |
| --- | --- |
| 1.23 nM | B1 |
| 13.9 nM | B2 |
| 2.32 nM | B3 |
| 0.82 nM | B4 |
| 0.81 nM | B5 |

Biological target: T2, human TIGIT expressed on CHO-K1 cells
Assay: as above
Remark: another data set of the same source

| IC50 | Binder |
| --- | --- |
| 0.62 nM | B5 |
| 1.04 nM | B6 |
| 0.975 nM | B7 |
| 1.1 nM | B8 |
